Measurements as given in US10682419B2, “Prodrugs of peptide epoxy ketone protease inhibitors” (Onyx Therapeutics, Inc., priority 2012, dated 2020).

How the values were obtained:
[1] = Conversion of PEG conjugates to drug in human plasma; type: in vitro ADME
[2] = Pharmacokinetic comparison of Compound A and prodrug in mouse; type: in vivo

## COCCOCCOCCOCCOCCOCCOCCOCCn1cc(CNC(=O)c2cccc(S(=O)(=O)OCC(C)(O)C(=O)[C@H](CC(C)C)NC(=O)[C@H](Cc3ccccc3)NC(=O)[C@H](CC(C)C)NC(=O)[C@H](CCc3ccccc3)NC(=O)CN3CCOCC3)c2)nn1 (some centres unmarked)
[1]
  Conversion to drug in Human Plasma (%) 2 min: 7%
  Conversion to drug in Human Plasma (%) 30 min: 63%
  Conversion to drug in Human Plasma (%) 1 hr: 100%
  Conversion to drug in Human Plasma (%) 2 hr: 95%
  Conversion to drug in Human Plasma (%) 4 hr: 80%

## COCCOCCOCCOCCOCCOCCOCCOCCn1cc(COCCCS(=O)(=O)OCC(C)(O)C(=O)[C@H](CC(C)C)NC(=O)[C@H](Cc2ccccc2)NC(=O)[C@H](CC(C)C)NC(=O)[C@H](CCc2ccccc2)NC(=O)CN2CCOCC2)nn1 (some centres unmarked)
[1]
  Conversion to drug in Human Plasma (%) 2 min: 2%
  Conversion to drug in Human Plasma (%) 30 min: 18%
  Conversion to drug in Human Plasma (%) 1 hr: 58%
  Conversion to drug in Human Plasma (%) 2 hr: 90%
  Conversion to drug in Human Plasma (%) 4 hr: 80%

## CC(C)C[C@H](NC(=O)[C@H](CCc1ccccc1)NC(=O)CN1CCOCC1)C(=O)N[C@@H](Cc1ccccc1)C(=O)N[C@@H](CC(C)C)C(=O)[C@@]1(C)CO1 [Cmpd A, (S)-4-methyl-N—((S)-1-(((S)-4-methyl-1-((R)-2-methyloxiran-2-yl)-1-oxopentan-2-yl)amino)-1-oxo-3-phenylpropan-2-yl)-2-((S)-2-(2-morpholinoacetamido)-4-phenylbutanamido)pentanamide]
[2]; time 1 hr
  [Cmpd A] (μM) at 1 hr: 0.008 µM
[2]; time 4 hr, BLOQ = below level of quantitation
  [Cmpd A] (μM) at 4 hr: BLOQ
[2]; time 6 hr, BLOQ = below level of quantitation
  [Cmpd A] (μM) at 6 hr: BLOQ
[2]; time 24 hr, BLOQ = below level of quantitation
  [Cmpd A] (μM) at 24 hr: BLOQ
